This note sets out measurements from patent US20040248211A1, “ICAM-related protein” (priority 1992, published 2004).

One test concerns SKW3 cells. As to the kind of experiment: Adhesion of PMA-activated SKW3 cells to plate-bound protein. The format is cell-based, human. Particulars: PMA-treated cells. The method, then: The partially purified shICAM-R protein was assayed for binding to SKW3 cells that were pretreated with phorbol ester as described in Example 7 to activate LFA-1-dependent adhesion. The ICAM-R protein was coated onto 96-well Immulon 4 (Dynatech) plates after adjusting the lectin eluate to 25 mM carbonate pH 9.6 and incubated overnight at 4° C. The plates were washed two times with PBS, blocked for 30 minutes at 37° C. with 200 ul/well PBS, 1% BSA, and washed again with PBS before adding cells. SKW3 cells were washed in serum-free RPMI (Gibco), labelled with Calcein-AM (Molecular Probes), and stimulated with PMA. Cells were then added to the plates and incubated for 1 hour at 37° C. The plates were inverted in prewarmed PBS, 1% BSA and were incubated for 30 minutes. The plates were then removed and half of the contents of each well was aspriated. The plates were then scanned with a fluorescence microscope and an automated fluorescence reader.
Peak fractions from wtHis6, E37His6 and mock transfectants were concentrated about 6.5 fold using Centricon 30 (Amicon) centrifugation units. The resultant concentrates were adjusted to equal vols. (0.34 ml) using PBS-D. Control soluble ICAM-R (15 ug/ml) (Example 9) in carbonate buffer pH 9.6 or in buffer D with 40 mM imidazole were made up. […]

Test [1] has as its target T1, soluble baculovirus produced human ICAM-R (Homo sapiens, UniProt P32942).
T1 sequence (P32942 30-485 limits assumed): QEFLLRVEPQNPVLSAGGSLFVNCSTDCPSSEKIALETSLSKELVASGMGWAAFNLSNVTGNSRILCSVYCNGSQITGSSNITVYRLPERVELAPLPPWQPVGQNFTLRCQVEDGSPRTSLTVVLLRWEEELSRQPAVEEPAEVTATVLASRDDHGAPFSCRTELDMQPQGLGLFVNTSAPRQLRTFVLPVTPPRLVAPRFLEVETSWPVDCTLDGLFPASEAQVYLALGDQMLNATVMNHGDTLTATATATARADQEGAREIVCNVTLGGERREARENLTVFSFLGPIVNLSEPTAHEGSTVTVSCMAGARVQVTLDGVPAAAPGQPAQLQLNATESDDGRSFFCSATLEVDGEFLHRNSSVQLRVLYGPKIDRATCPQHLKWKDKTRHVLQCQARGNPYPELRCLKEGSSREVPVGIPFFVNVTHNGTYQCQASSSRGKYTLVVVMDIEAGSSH
Put plainly: ELISA binding of recombinant ICR-1.1 antibodies. On the technique in general: In an ELISA, binding on a coated surface is turned into a signal by an enzyme label.

For a further test, the system named is T cells. As to the kind of experiment: IL-2 production in response to anti-CD3 and ICAM-R proteins. In kind it is cell-based, human. Particulars: in comparison to the HSA control.
In test [2] the test system is Human peripheral blood lymphocytes. As to the kind of experiment: Costimulation of lymphocytes by soluble ICAM-R. The format is cell-based. The protocol: shICAM-R (Example 9) was assayed for the ability to costimulate human lymphocyte activation. Human peripheral blood lymphocytes (PBL) were obtained by Ficoll-Hypaque centrifugation and 2×10^5 cells per well were incubated in the presence of either media, plate bound shICAM-R, plate bound anti-CD3 (OKT3) or a combination of plate bound anti-CD3 and shICAM-R. At 17 hours and 4 days after initiation of culture cells were removed, stained with monoclonal antibodies to human lymphocyte activation antigens and analyzed by flow cytometry.

Test [3] concerns JY cells (LFA-1) binding to ICAM-R/IgG. Put plainly: JY cell binding to plate-bound ICAM-R/IgG chimeras. In kind it is cell-based, human. The protocol: The binding of the lymphoblastoid cell line JY, which expresses LFA-1, to wild type ICAM-R/IgG chimera was examined in the presence and absence of LFA-1 specific antibodies or antibodies specific for either domain 1 or 2 of ICAM-R. ICAM-R chimeras were diluted to 10 μg/ml in 0.1M Na-carbonate/bicarbonate buffer pH 9.6 and used to coat triplicate wells (50 μl/well) of an Immulon 4 96-well plate (Dynatech) overnight at 4° C. Wells were washed three times in PBS and blocked with 1% BSA (in PBS) for 1 hour at 37° C. JY cells were labeled with the fluorescent dye Calcein (Moleculat Probes, Eugene, Oreg.) at 8 μg/ml at 37° C. in serum free RPMI for 20 minutes. Cells were washed with RPMI and resuspended in binding buffer (0.2% HSA in RPMI. Approximately 1×10^5 cells were added to each well containing the binding buffer with or without antibody (20 μg/ml of ICR-2.1, ICR-1.1, ICR-3.1, ICR-5.1, ICR-7.1, ICR-8.1, ICR-4.2, ICR-6.2, ICR-9.2, TS1/22 or 60.3) so that the final volume was 0.35 ml. Plates were incubated at 37° C. in the dark for 45 minutes and input fluorescence was quantitated with a fluorescence reader (Millipore) in a 96-well format. Unbound cells were removed by inverting the plate in 0.1% BSA in PBS for 20 minutes. Bound cells were quantitated by measuring the remaining fluorescence and presented as percent input minus background binding to wells coated with BSA alone.

B1: wtHis6: wild type histidine tagged soluble ICAM-R extracellular domain (protein)
chain: QEFLLRVEPQNPVLSAGGSLFVNCSTDCPSSEKIALETSLSKELVASGMGWAAFNLSNVTGNSRILCSVYCNGSQITGSSNITVYGLPERVELAPLPPWQPVGQNFTLRCQVEGGSPRTSLTVVLLRWEEELSRQPAVEEPAEVTATVLASRDDHGAPFSCRTELDMQPQGLGLFVNTSAPRQLRTFVLPVTPPRLVAPRFLEVETSWPVDCTLDGLFPASEAQVYLALGDQMLNATVMNHGDTLTATATATARADQEGAREIVCNVTLGGERREARENLTVFSFLGPIVNLSEPTAHEGSTVTVSCMAGARVQVTLDGVPAAAPGQTAQLQLNATESDDGRSFFCSATLEVDGEFLHRNSSVQLRVLYGPKIDRATCPQHLKWKDKTRHVLQCQARGNPYPELRCLKEGSSREVPVGIPFFVNVTHNGTYQCQASSSRGKYTLVVVMDIEAFSSGPGHHHHHH
Regarding B1, the “adhesion of SKW3 cells to plate bound protein” value in the test with SKW3 cells is on record as “functions as an adhesive ligand for SKW3 cells”.

B2: HuVK: humanized ICR-1.1 kappa chain V region (antibody, V domains shown)
VL: GARCDIQMTQSPSSLSASVGDRVTITCSASSSVSYIYWYQQKPGKAPKLLIYLTSNLASGVPSRFSGSGSGTDFTLTISSLQPEDFATYYCQQWKSIPLTFGQGTKLEIK
Turning to B2, the “deficit in binding compared with murine progenitor chain, ICR-1.1 versions” value in test [1] is 2 fold.

B3: shICAM-R: soluble human ICAM-R truncated at amino acid 457, baculovirus expressed (protein)
chain: QEFLLRVEPQNPVLSAGGSLFVNCSTDCPSSEKIALETSLSKELVASGMGWAAFNLSNVTGNSRILCSVYCNGSQITGSSNITVYGLPERVELAPLPPWQPVGQNFTLRCQVEGGSPRTSLTVVLLRWEEELSRQPAVEEPAEVTATVLASRDDHGAPFSCRTELDMQPQGLGLFVNTSAPRQLRTFVLPVTPPRLVAPRFLEVETSWPVDCTLDGLFPASEAQVYLALGDQMLNATVMNHGDTLTATATATARADQEGAREIVCNVTLGGERREARENLTVFSFLGPIVNLSEPTAHEGSTVTVSCMAGARVQVTLDGVPAAAPGQTAQLQLNATESDDGRSFFCSATLEVDGEFLHRNSSVQLRVLYGPKIDRATCPQHLKWKDKTRHVLQCQARGNPYPELRCLKEGSSREVPVGIPFFVNVTHNGTYQCQASSSRGKYTLVVVMDIEAFSSH
B3: the “adhesion of SKW3 cells to plate bound protein” value in the test with SKW3 cells is reported as “demonstrated adhesion of phorbol ester-activated lymphocytes”. Moreover, the “IL-2 production in response to CD3 mAb” value in the test on T cells is “enhanced IL-2 production”. Besides, the “expression of activation antigens ICAM-1, IL-2 receptor, transferrin receptor” value is “elevated levels of the activation antigens ICAM-1, IL-2 receptor and transferrin receptor” in test [2] (4 days, plate bound anti-CD3 0.5 ug/well and protein 100 ng/well, versus anti-CD3 alone); “no increased levels of these activation antigens” in test [2] (protein 100 ng/well alone, versus media alone).

B4: L121/P: ICAM-R/IgG chimera with domain 2 mutation L121/P (protein, UniProt P32942 30-485, looked up, variant L121P)
extracellular domain: QEFLLRVEPQNPVLSAGGSLFVNCSTDCPSSEKIALETSLSKELVASGMGWAAFNLSNVTGNSRILCSVYCNGSQITGSSNITVYRLPERVELAPLPPWQPVGQNFTLRCQVEDGSPRTSPTVVLLRWEEELSRQPAVEEPAEVTATVLASRDDHGAPFSCRTELDMQPQGLGLFVNTSAPRQLRTFVLPVTPPRLVAPRFLEVETSWPVDCTLDGLFPASEAQVYLALGDQMLNATVMNHGDTLTATATATARADQEGAREIVCNVTLGGERREARENLTVFSFLGPIVNLSEPTAHEGSTVTVSCMAGARVQVTLDGVPAAAPGQPAQLQLNATESDDGRSFFCSATLEVDGEFLHRNSSVQLRVLYGPKIDRATCPQHLKWKDKTRHVLQCQARGNPYPELRCLKEGSSREVPVGIPFFVNVTHNGTYQCQASSSRGKYTLVVVMDIEAGSSH
modifications: extracellular domain fused to IgG Fc
notes: ICAM-R/IgG chimera with domain 2 mutation L121/P
For the molecule B4, the “LFA-1 mediated JY cell adhesion to variant ICAM-R/IgG chimera” value in test [3] (chimera coated at 10 μg/ml) is reported as “wild type levels of LFA-1 mediated binding”.

B5: T38/A: ICAM-R/IgG chimera, Thr38 changed to Ala (protein)
chain: QEFLLRVEPQNPVLSAGGSLFVNCSTDCPSSEKIALEASLSKELVASGMGWAAFNLSNVTGNSRILCSVYCNGSQITGSSNITVYGLPERVELAPLPPWQPVGQNFTLRCQVEGGSPRTSLTVVLLRWEEELSRQPAVEEPAEVTATVLASRDDHGAPFSCRTELDMQPQGLGLFVNTSAPRQLRTFVLPVTPPRLVAPRFLEVETSWPVDCTLDGLFPASEAQVYLALGDQMLNATVMNHGDTLTATATATARADQEGAREIVCNVTLGGERREARENLTVFSFLGPIVNLSEPTAHEGSTVTVSCMAGARVQVTLDGVPAAAPGQTAQLQLNATESDDGRSFFCSATLEVDGEFLHRNSSVQLRVLYGPKIDRATCPQHLKWKDKTRHVLQCQARGNPYPELRCLKEGSSREVPVGIPFFVNVTHNGTYQCQASSSRGKYTLVVVMDIEAFSSH
modifications: left off: a dimerising Fc or GST
notes: ICAM-R/IgG chimera, Thr38 changed to Ala
On to B5, for which the “reduction in JY cell adhesion to variant ICAM-R/IgG chimera” value in test [3] was 70-80%.

B6: HuVH: humanized ICR-1.1 heavy chain V region (Met48) (antibody, V domains shown)
VH: GVQSQVQLVQSGAEVKKPGASVKVSCKASGYTFTVYWMHWVRQAPGQGLEWMGYINPNTDYTEYNQRFQKRVTITADTSTSTAYMELSSLRSEDTAVYYCARWGGNSYGLDYWGQGTLVTVSS
For the molecule B6, the “deficit in binding compared with murine progenitor chain, ICR-1.1 versions” value in test [1] is listed as 2-3 fold.
